What was measured:
mice = conditions: whole animal studies; reported DRF; cited from earlier work
[1] = reported in the scientific literature; cited from earlier work
C57BL6/albino mice = assay: Survival after whole body X-irradiation, oral RLIP76 proteoliposomes (dose and time response); assay type: in vivo
Experimental: In order to investigate whether RLIP76 could be effective when delivered more than 24 hours after radiation exposure, a series of studies were conducted to explore the protective benefit of RLIP76 when given at varying doses, exposure levels, and times after exposure. All mice were C57BL6/albino strain, the strain most commonly used for radiation effect models. Exposure was delivered by whole body X-irradiation with a Varian Clinac Linear accelerator (2100C) at the Texas Cancer Center (Arlington, Tex.). A 6-MeV photon beam was used at a rate of 400 cGy/minute. Mice were isolated to one side of their cage on top of 1.5 cm of superflab bolus and the field of treatment centered on them. Total dose was split into two fractions, anterior and posterior, by rotating the accelerator gantry 180 degrees. Unless otherwise specified, all experiments were performed on six mice per group.
Dose and time dependency was investigated over a range of radiation exposures. Initially, six groups of wild-type mice were exposed to 500 cGy of radiation, and then treated with no RLIP76 proteoliposomes (control) or various dosages of RLIP76 proteoliposomes given at various times after the radiation exposure. […]

[2] = system: wild-type (+/+) and homozygous (−/−) RIP1 mice; assay: Survival of wild-type and RIP1 knockout mice after X-irradiation, RLIP76 liposomes i.p.; assay type: in vivo
Experimental: FIG. 5. Effect of RLIP76 on survival after higher doses of X irradiation. Four wild-type (+/+) RIP1 mice and four homozygous (−/−) mice were each exposed to 750 cGy X irradiation and treated with control liposomes administered by i.p. injection (triangles, homozygous RIP1 mice; diamonds, wild-type RIP mice), or 400 μg RLIP76 liposomes administered by i.p. injection (squares, homozygous RIP1 mice; circles, wild-type RIP1 mice), given 12 hours after exposure.
As disclosed in U.S. Ser. No. 11/741,447, C57B mice that carry both copies of the RIP1 (mouse version of RLIP76) gene (wild-type; +/+), one copy of the RIP1 gene (heterozygous; +/−), or no copies of the RIP1 gene (homozygous; −/−) were created using Cre-Lox technology that can selectively suppress genes (Lexicon Genetics, Incorporated, The Woodlands, Tex.). Western blot analysis of tissues from homozygous RIP 1 knockout mice was performed after i.p. injection of RLIP76-liposomes. […]
If loss of RIP1 was the major determining factor in this acquired radiation sensitivity, replacement of this deficit should reverse radiation […]. […] Liposomes were prepared in sufficient quantities and administered via intraperitoneal (i.p.) injection to homozygous RIP1 mice. […]

CC1(C)CC(O)CC(C)(C)N1[O] [tempol, 4-hydroxy-2,2,6,6-tetramethylpiperidinyloxy]
dose-reduction factor (DRF) (mice): 1.3

CC1=NN(c2ccccc2)C(=O)C1 [edaravone, 3 methyl-1-phenyl-2-pyrazolin-5-one]
dose-reduction factor (DRF) (mice): 1.3

Cc1cc(C(C)(C)C)c(O)c(C(C)(C)C)c1 [BHT, butylated hydroxytoluene]
radioprotective effect on its own [1]: radioprotective effect

B1: RLIP76 protein: ubiquitous multi-specific efflux pump protein; human sequence of 655 amino acids, GenBank NP—006779; recombinant (protein, UniProt Q15311 2-655, looked up)
RalA-binding protein 1: TECFLPPTSSPSEHRRVEHGSGLTRTPSSEEISPTKFPGLYRTGEPSPPHDILHEPPDVVSDDEKDHGKKKGKFKKKEKRTEGYAAFQEDSSGDEAESPSKMKRSKGIHVFKKPSFSKKKEKDFKIKEKPKEEKHKEEKHKEEKHKEKKSKDLTAADVVKQWKEKKKKKKPIQEPEVPQIDVPNLKPIFGIPLADAVERTMMYDGIRLPAVFRECIDYVEKYGMKCEGIYRVSGIKSKVDELKAAYDREESTNLEDYEPNTVASLLKQYLRDLPENLLTKELMPRFEEACGRTTETEKVQEFQRLLKELPECNYLLISWLIVHMDHVIAKELETKMNIQNISIVLSPTVQISNRVLYVFFTHVQELFGNVVLKQVMKPLRWSNMATMPTLPETQAGIKEEIRRQEFLLNCLHRDLQGGIKDLSKEERLWEVQRILTALKRKLREAKRQECETKIAQEIASLSKEDVSKEEMNENEEVINILLAQENEILTEQEELLAMEQFLRRQIASEKEEIERLRAEIAEIQSRQQHGRSETEEYSSESESESEDEEELQIILEDLQRQNEELEIKNNHLNQAIHEEREAIIELRVQLRLLQMQRAKAEQQAQEDEEPEWRGGAVQPPRDGVLEPKAAKEQPKAGKEPAKPSPSRDRKETSI
rescue with delayed first dose (C57BL6/albino mice; initial dose given a full 24 hours or more after the radiation exposure): significant rescue
increase in survival (C57BL6/albino mice; wild-type mice, radiation dose that normally results in complete lethality by day 30 (500 cGy), 2 doses of 100 micrograms, oral): 200%
survival as compared with RIP1+/+ mice ([2]; RIP1−/− mice supplemented with RLIP76, 750 cGy): significantly improved survival
reversal of radiation sensitivity ([2]; mice genetically deficient in RLIP76 protein, supplementation by intravenous or oral administration): can be reversed

From US20110020432A1, “COMPOSITIONS AND METHODS OF USE FOR POST-RADIATION PROTECTION” (TERAPIO CORPORATION, priority 2009, published 2011)
